Common to all, as to experiment: cell-based or functional assay
For test [1], the target named is HIV-1 Env of pseudovirus isolate MGRM-C-028 (clade C) (HIV-1).
Test [2] concerns the target HIV-1 Env of isolate MGRM-D-019 (pseudovirus) (HIV-1).
Test [3] addresses HIV-1 Env of isolate MGRM-D-028 (HIV-1).
The target in test [4] is HIV-1 Env of isolate 92UG005 (pseudovirus) (HIV-1).
The target in test [5] is HIV-1 Env of isolate MGRM-D-011 (pseudovirus) (HIV-1).
The target of test [6] is HIV-1 Env of isolate MGRM-F1-022 (HIV-1).
The target of test [7] is HIV-1 Env of isolate MGRM-AE-002 (subtype AE) (HIV-1).
Test [8] has as its target HIV-1 Env of isolate MGRM-AE-007 (subtype AE) (HIV-1).
Test [9] has as its target HIV-1 Env of isolate MGRM-F1-008 (HIV-1).
Test [10] concerns the target HIV-1 Env of isolate MGRM-C-004 (HIV-1).
Test [11] has as its target HIV-1 Env of isolate MGRM-G-014 (subtype G) (HIV-1).
Test [12] addresses HIV-1 Env of isolate MGRM-AG-011 (pseudovirus) (HIV-1).
For test [13], the target named is HIV-1 Env of isolate MGRM-G-019 (subtype G) (HIV-1).
Test [14] deals with HIV-1 Env of isolate MGRM-G-006 (subtype G) (HIV-1).
The target in test [15] is HIV-1 envelope glycoprotein (Env) of isolate 92WR020, subtype A (HIV-1).
Test [16] addresses HIV-1 Env of isolate MGRM-F1-022 (pseudovirus) (HIV-1).
Test [17] concerns the target HIV-1 envelope glycoprotein (Env) of isolate VLGCB3, on pseudovirus (HIV-1).
Test [18] has as its target HIV-1 envelope glycoprotein (Env) of isolate MG RM-A-012, subtype A (HIV-1).
Test [19] concerns the target HIV-1 envelope glycoprotein (Env) of isolate TRO.11, on pseudovirus (HIV-1).
Test [20] addresses HIV-1 Env of isolate MGRM-F1-013 (pseudovirus) (HIV-1).
For test [21], the target named is HIV-1 92BR020 Env (HIV-1).
Test [22] addresses HIV-1 envelope glycoprotein (Env) of isolate MGRM-Chronic-B-024, on pseudovirus (HIV-1).
The target in test [23] is HIV-1 APV6 Env (HIV-1).
Test [24] concerns the target HIV-1 Env of isolate 94UG103 (Clade A) (HIV-1).
For test [25], the target named is HIV-1 Env of isolate SC422661.8 (Acute), clade B (HIV-1).
Test [26] deals with HIV-1 MGRM-AE-005 Env (pseudovirus) (HIV-1).
Test [27] concerns the target HIV-1 Env of pseudovirus MGRM-G-024 (HIV-1).
In test [28] the target is HIV-1 Env of pseudovirus MGRM-F1-016 (clade F) (HIV-1).
Test [29] addresses HIV-1 MGRM-AG-012 Env (pseudovirus) (HIV-1).
The target of test [30] is HIV-1 envelope glycoprotein (Env) of isolate MGRM-C-024 (HIV-1).
Test [31] deals with HIV-1 Env of isolate 92UG046 (clade D pseudovirus) (HIV-1).
For test [32], the target named is HIV-1 Env of pseudovirus MGRM-F1-014 (clade F) (HIV-1).
Test [33] deals with HIV-1 envelope glycoprotein (Env) of isolate MGRM-C-017 (HIV-1).
The target of test [34] is HIV-1 envelope glycoprotein (Env) of isolate MGRM-C-005 (HIV-1).
Test [35] addresses HIV-1 Env of pseudovirus MGRM-F1-018 (clade F) (HIV-1).
Test [36] addresses HIV-1 92RW024 envelope glycoprotein (Env) on pseudovirus (HIV-1 (clade A)).

Chain of 5345_I01 (PGT-137) (antibody) (VH): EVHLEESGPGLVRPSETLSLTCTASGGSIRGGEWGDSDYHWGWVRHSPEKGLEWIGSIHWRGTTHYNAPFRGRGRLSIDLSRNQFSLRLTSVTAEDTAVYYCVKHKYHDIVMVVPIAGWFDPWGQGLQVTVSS
Chain of 5345_I01 (PGT-137) (antibody) (VL): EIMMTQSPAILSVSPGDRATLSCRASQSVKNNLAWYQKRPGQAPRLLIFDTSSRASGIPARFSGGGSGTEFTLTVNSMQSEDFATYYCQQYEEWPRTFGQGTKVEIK
Chain of 5329_C19 (PGT-136) (antibody) (VH): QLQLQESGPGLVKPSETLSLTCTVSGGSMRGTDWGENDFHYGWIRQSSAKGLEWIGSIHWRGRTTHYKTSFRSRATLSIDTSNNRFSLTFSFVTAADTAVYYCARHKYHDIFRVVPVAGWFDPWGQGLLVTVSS
Chain of 5329_C19 (PGT-136) (antibody) (VL): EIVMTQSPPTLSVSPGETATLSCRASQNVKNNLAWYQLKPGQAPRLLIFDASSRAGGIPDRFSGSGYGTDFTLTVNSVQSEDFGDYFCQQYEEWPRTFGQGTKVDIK

5114_A19 (PGT-128) (antibody): the IC50, pseudovirus neutralization in test [1] is 14.4 µg/mL; in test [7], 0.522 µg/mL; in test [8], > 50 µg/mL. Moreover, the IC50 (µg/mL), pseudovirus neutralization in test [2] was > 50 µg/mL; in test [3] it was > 50 µg/mL; in test [4], 0.018 µg/mL; in [5], 0.007 µg/mL; in test [6], 4.54 µg/mL; in [9], > 50 µg/mL. In test [10], this substance registered an IC50 (µg/mL), pseudovirus neutralization of 0.025 µg/mL.

For PGV04 (antibody), the IC50 (µg/mL), pseudovirus neutralization in test [11] is 0.056 µg/mL; in test [12] it was 0.071 µg/mL; in [6] it was 0.072 µg/mL; in test [13], 0.027 µg/mL; in test [14] it was 0.083 µg/mL.

On to 4858_P08 (PGT-123) (antibody), for which the IC50, pseudovirus neutralization in test [15] is 0.002 µg/mL; in test [17], 0.004 µg/mL; in test [18], 0.192 µg/mL; in [19], 0.008 µg/mL; in [21], 0.013 µg/mL; in test [22] it was > 50 µg/mL. The substance further came in with an IC50, pseudovirus neutralization in test [23] of 0.0327 µg/mL. Moreover, the IC50 (µg/mL), pseudovirus neutralization in test [16] is 0.075 µg/mL; in [12], > 50 µg/mL; in [20], 0.08 µg/mL.

As for 5141_B17 (PGT-126) (antibody), the IC50, pseudovirus neutralization is 0.006 µg/mL in test [15]; 0.007 µg/mL in [17]; 0.097 µg/mL in test [18]; 0.041 µg/mL in [19]; 0.0163 µg/mL in test [21]; > 50 µg/mL in test [22]. In test [23], this substance registered an IC50, pseudovirus neutralization of 0.0249 µg/mL. In addition, the IC50 (µg/mL), pseudovirus neutralization in [16] is > 50 µg/mL; in test [12], 24.5 µg/mL; in test [20], > 50 µg/mL.

For 4838_L06 (PGT-121) (antibody), the IC50, pseudovirus neutralization in [15] is 0.004 µg/mL; in [17], 0.005 µg/mL; in [18], 0.092 µg/mL; in test [19], 0.008 µg/mL; in test [22], 0.195 µg/mL. Also, the IC50 (µg/mL), pseudovirus neutralization in test [16] amounted to 0.104 µg/mL; in test [20], 0.083 µg/mL.

For the substance 5136_H01 (PGT-131) (antibody), the IC50, pseudovirus neutralization in test [1] is > 50 µg/mL; in test [7], > 50 µg/mL; in test [8], 0.026 µg/mL. Moreover, the IC50 (µg/mL), pseudovirus neutralization was > 50 µg/mL in test [2]; > 50 µg/mL in [3]; 0.854 µg/mL in [4]; 0.756 µg/mL in [5]; > 50 µg/mL in test [6]; 2.74 µg/mL in [9]. The IC50 (µg/mL), pseudovirus neutralization in test [10] turned out to be 3.71 µg/mL.

Consider 5345_I01 (PGT-137) (antibody), for which the IC50, pseudovirus neutralization in test [1], in [7] and in test [8] was > 50 µg/mL throughout. The IC50 (µg/mL), pseudovirus neutralization is > 50 µg/mL in [2]; > 50 µg/mL in test [3]; > 50 µg/mL in [4]; 6.3 µg/mL in test [5]; 6.23 µg/mL in [6]; > 50 µg/mL in test [9]. Besides, in test [10], the IC50 (µg/mL), pseudovirus neutralization is 0.026 µg/mL.

On to 5329_C19 (PGT-136) (antibody), for which the IC50, pseudovirus neutralization in test [1] is 33.7 µg/mL; in test [21] it was > 10 µg/mL; in test [7], > 50 µg/mL; in test [8] it was > 50 µg/mL. Moreover, the IC50 (µg/mL), pseudovirus neutralization in test [2] was > 50 µg/mL; in test [3], > 50 µg/mL; in test [4], > 50 µg/mL; in test [5] it was > 50 µg/mL; in [6] it was 2.42 µg/mL; in [9], > 50 µg/mL. The IC50 (µg/mL), pseudovirus neutralization in test [10] came to 0.034 µg/mL.

On to 5145_B14 (PGT-127) (antibody), for which the IC50, pseudovirus neutralization in test [15] is 0.01 µg/mL; in test [17] it was 0.022 µg/mL; in test [18], 0.105 µg/mL; in test [19], 0.079 µg/mL; in test [22] it was > 50 µg/mL. Moreover, the IC50 (µg/mL), pseudovirus neutralization in [16], in [12] and in [20] was > 50 µg/mL throughout.

For the substance 5343_B08 (PGT-135) (antibody), the IC50, pseudovirus neutralization was 1.47 µg/mL in [1], 0.104 µg/mL in test [21], > 50 µg/mL in [7] and > 50 µg/mL in test [8]. Also, the IC50 (µg/mL), pseudovirus neutralization in [2] was > 50 µg/mL; in [3], > 50 µg/mL; in test [4] it was > 50 µg/mL; in test [5], 23.5 µg/mL; in test [6] it was 0.964 µg/mL; in test [9] it was > 50 µg/mL. In addition, the IC50 (µg/mL), pseudovirus neutralization in test [10] worked out at 0.046 µg/mL.

In the case of 5123_A06 (PGT-125) (antibody), the IC50, pseudovirus neutralization in test [15] was 0.004 µg/mL; in test [17] it was 0.015 µg/mL; in test [18], 0.177 µg/mL; in [19], 0.111 µg/mL; in test [21], 0.0214 µg/mL; in [22], > 50 µg/mL. The IC50, pseudovirus neutralization in test [23] turned out to be 0.0359 µg/mL. Moreover, the IC50 (µg/mL), pseudovirus neutralization in test [16], in [12] and in [20] was > 50 µg/mL each time.

On to 4877_D15 (PGT-122) (antibody), for which the IC50, pseudovirus neutralization in test [15] came to 0.009 µg/mL; in test [17], 0.008 µg/mL; in [18], 0.257 µg/mL; in [19], 0.011 µg/mL; in test [21] it was 0.0337 µg/mL; in test [22], 2.31 µg/mL. This substance gave an IC50, pseudovirus neutralization in test [23] of 0.0851 µg/mL. Moreover, the IC50 (µg/mL), pseudovirus neutralization was 0.277 µg/mL in test [16], > 50 µg/mL in test [12] and 0.152 µg/mL in [20].

For orientation: IC50 means the concentration needed to halve the response being measured. High values mean lower potency, low ones higher potency. Consider 1496_C09 (PG9) (TCN-109) (antibody), for which the IC50 (µg/mL), pseudovirus neutralization was found to be 16.5 µg/mL in test [11], 0.007 µg/mL in test [12], 14.6 µg/mL in [13] and 1.98 µg/mL in [14]. In [24], this substance displayed an IC90 (neutralization of pseudovirus) of 3.37 µg/mL. For the same substance, the IC50 (µg/ml), pseudovirus neutralization in test [25] amounted to 0.79 µg/mL; in test [26], 0.16 µg/mL; in test [27] it was 0.07 µg/mL; in test [29], 1.37 µg/mL; in test [30] it was 0.22 µg/mL; in [33] it was 1.52 µg/mL. In addition, the IC50 (µg/ml), pseudovirus neutralization in test [34] amounted to 2.98 µg/mL; in test [36], 0.18 µg/mL. The IC50 in test [28] came out at 0.58 µg/mL; in [32], 0.01 µg/mL; in test [35] it was 0.03 µg/mL. The IC50, pseudovirus neutralization was 0.64 µg/mL in test [31] and 0.214 µg/mL in test [23].

The record behind these values is patent US20240132578A1.
